Paper PMC2644404 (Journal of molecular biology, 2008)

Biological target: T1, Human salivary α-amylase (human, UniProt P0DUB6 16-511)
T1 sequence (looked up): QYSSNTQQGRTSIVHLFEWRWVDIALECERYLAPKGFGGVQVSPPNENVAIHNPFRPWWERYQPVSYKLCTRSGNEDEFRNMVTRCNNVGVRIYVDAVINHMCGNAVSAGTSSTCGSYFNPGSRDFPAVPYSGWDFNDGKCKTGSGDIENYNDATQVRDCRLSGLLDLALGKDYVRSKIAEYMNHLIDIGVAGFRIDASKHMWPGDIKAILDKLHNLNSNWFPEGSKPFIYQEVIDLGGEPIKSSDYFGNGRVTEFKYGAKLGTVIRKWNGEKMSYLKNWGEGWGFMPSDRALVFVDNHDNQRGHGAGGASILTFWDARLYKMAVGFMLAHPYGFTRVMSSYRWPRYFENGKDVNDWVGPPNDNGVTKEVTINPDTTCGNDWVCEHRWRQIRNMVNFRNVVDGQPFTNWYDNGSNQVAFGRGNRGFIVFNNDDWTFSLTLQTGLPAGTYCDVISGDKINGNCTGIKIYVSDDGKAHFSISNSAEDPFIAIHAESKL
Assay: SPR

B1: Amylase binding protein A (natural protein, S. gordonii, UniProt A8AZZ3 1-195, looked up)
chain: MKKVLLSSVVALTLFAAAAPVFSADEATDAARNNDGAYYLQTQFTNADKVNEYLAQHDGEIRAEAAADPAVVAAKAALDAVEGGSHNYGEVKAAYEAAFNNAFNAVRNKYVQQFQATYNNATEQEGKTYIQGETPEQANARYLKRVGAANNQNPAAEDKGATTPASKEEAKKSEAAAKNAGKAAGKALPKTSAVK
Work on B1 yielded a Ka of 8.79e+07 M⁻¹, a Kd of 11.3 nM and a koff of 0.000307 s⁻¹. It also gave a kon of 27000 M⁻¹ s⁻¹.
